Reference: patent US20260209359A1 (NEXTERA, published 2026)
Substitutions are numbered along the chain they refer to.

B1: AMC8 scDb (bispecific antibody)
chain: DIRLTQSPSSLSASVGDRVTMTCRASQTVATYVNWYQQKPGRAPKLLMYVTSIRQSEVPSRFSGDGFGTDFTLTINPLQPDDFATYYCQQAYSTPVTFGQGTKLEIKGGGGSEVQLQQSGPELVKPGASMKISCKASGYSFTGYTMNWVKQSHGKNLEWMGLINPYKGVSTYNQKFKDKATLTVDKSSSTAYMELLSLTSEDSAVYYCARSGYYGDSDWYFDVWGAGTTVTVSSGGGGSGGGGSGGGGSDIQMTQTTSSLSASLGDRVTISCRASQDIRNYLNWYQQKPDGTVKLLIYYTSRLHSGVPSKFSGSGSGTDYSLTISNLEQEDIATYFCQQGNTLPWTFAGGTKLEIKGGGGSQVQLVQSGAEVKKPGASVKVSCKVSGYTLTELSMHWVRQAPGKGLEWMGGFDPEDGETIYAQKFQGRVTMTEDTSTDTAYMELSSLRSEDTAVYYCATDQGASWGFYWGQGTLVTVSS
notes: as m68
B2: AM2 scDb (bispecific antibody)
chain: DIRVTQSPSSLSASVGDRVTITCRASQNIMWYLNWYQQKPGKAPKLLIYAASSLQSGVPSRFSGSGSGTDFTLTISSLQPEDFATYYCQQSYSTPYTFGQGTKLEIKGGGGSEVQLQQSGPELVKPGASMKISCKASGYSFTGYTMNWVKQSHGKNLEWMGLINPYKGVSTYNQKFKDKATLTVDKSSSTAYMELLSLTSEDSAVYYCARSGYYGDSDWYFDVWGAGTTVTVSSGGGGSGGGGSGGGGSDIQMTQTTSSLSASLGDRVTISCRASQDIRNYLNWYQQKPDGTVKLLIYYTSRLHSGVPSKFSGSGSGTDYSLTISNLEQEDIATYFCQQGNTLPWTFAGGTKLEIKGGGGSQVQLVQSGAEVKKPGASVKVSCKVSGYTLTELSMHWVRQAPGKGLEWMGGFDPEDGETIYAQKFQGRVTMTEDTSTDTAYMELSSLRSEDTAVYYCATDQGSSWGFYWGQGTLVTVSS
notes: VLA-VHB-VLB-VHA, anti-CD3 UCHT1
B3: AM4 scDb (bispecific antibody)
chain: B2 chain with S26D, Q27I, N28D, M30R
notes: as m68
B4: AM3 scDb (bispecific antibody)
chain: B2 chain with S26D, Q27H, N28H, M30F
notes: as m68
B5: AMC9 scDb (bispecific antibody)
chain: B2 chain with S463A
notes: as m68
B6: AM5 scDb (bispecific antibody)
chain: B2 chain with N28S, M30S, W31S, S91A, S93R, T94I, G369V, T459A
notes: as m68
B7: AM12 scDb (bispecific antibody)
chain: B2 chain with D416Q, S463A
notes: as m68
B8: AM18 scDb (bispecific antibody)
chain: B2 chain with V4L, A13V, Q27E, N28D, M30R, W31Y, L33V
notes: as m68
B9: AMC11 scDb (bispecific antibody)
chain: B2 chain with S91A, S93R, T94I
notes: as m68
B10: AM16 scDb (bispecific antibody)
chain: DIQLTQSPSSLSASVGDRVTISCRASQSIMTYLNWYQQRPGKAPKLLIYSASRLQSGVPSRFSGSGYGTEFTLTISSLQPEDFATYYCQQSYSTPFTFGPGTKVDIKGGGGSEVQLQQSGPELVKPGASMKISCKASGYSFTGYTMNWVKQSHGKNLEWMGLINPYKGVSTYNQKFKDKATLTVDKSSSTAYMELLSLTSEDSAVYYCARSGYYGDSDWYFDVWGAGTTVTVSSGGGGSGGGGSGGGGSDIQMTQTTSSLSASLGDRVTISCRASQDIRNYLNWYQQKPDGTVKLLIYYTSRLHSGVPSKFSGSGSGTDYSLTISNLEQEDIATYFCQQGNTLPWTFAGGTKLEIKGGGGSQVQLVQSGAEVKKPGASVKVSCKVSGYTLTELSMHWVRQAPGKGLEWMGGFDPEDGETIYAQKFQGRVTMTEDTSTDTAYMELSSLRSEDTAVYYCATDQGSSWGFYWGQGTLVTVSS
notes: as m68
B11: AM2 Fab (Fab, V domains shown)
VH: QVQLVQSGAEVKKPGASVKVSCKVSGYTLTELSMHWVRQAPGKGLEWMGGFDPEDGETIYAQKFQGRVTMTEDTSTDTAYMELSSLRSEDTAVYYCATDQGSSWGFYWGQGTLVTVSS
VL: DIRVTQSPSSLSASVGDRVTITCRASQNIMWYLNWYQQKPGKAPKLLIYAASSLQSGVPSRFSGSGSGTDFTLTISSLQPEDFATYYCQQSYSTPYTFGQGTKLEIKR
B12: AM10 Fab (Fab, V domains shown)
VH: B11 VH with S102A
VL: not shown
notes: Fab format
B13: AM15 Fab (Fab, V domains shown)
VH: B11 VH
VL: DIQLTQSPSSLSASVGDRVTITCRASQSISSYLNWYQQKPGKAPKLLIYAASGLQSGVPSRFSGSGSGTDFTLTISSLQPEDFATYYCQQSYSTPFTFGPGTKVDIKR
B14: AMC9 Fab (Fab, V domains shown)
VH: B11 VH with S102A
VL: B11 VL

Target: T1, HLA-A*02:01/MAGE-A4^230-239 displayed on cells (MAGE-A4^230-239 pulsed T2 cells; NCI-H1703, A375, THP1, … (human, UniProt P04439 25-365 at identity 0.94); P61769 21-119)
Experiment: cell-based or functional assay

| Binder | EC50 vs. NCI-H1703 (pM), T-cell specific killing [pM] |
| --- | --- |
| B1 | 2.51 |
| B2 | 2.2 |
| B3 | 3.1 |
| B4 | 3.4 |
| B5 | 1.68 |
| B6 | 6.4 |
| B7 | 4.3 |
| B8 | 4.4 |
| B9 | 0.72 |
| B10 | 5.3 |

Target: T1, HLA-A*02:01/MAGE-A4^230-239 displayed …
Experiment: cell-based or functional assay
Remark: another data set of the same source

| Binder | EC50 vs. A375 (pM), T-cell specific killing [pM] |
| --- | --- |
| B1 | 1.6 |
| B2 | 3.7 |
| B5 | 2.4 |
| B9 | 2.3 |

Target: T1, HLA-A*02:01/MAGE-A4^230-239 displayed …
Experiment: cell-based or functional assay
Remark: another data set of the same source

| Binder | EC50 vs. C-33-A (pM), T-cell specific killing [pM] | EC50 vs. HuTu80 (pM), T-cell specific killing [pM] |
| --- | --- | --- |
| B2 | 7.2 | 7.8 |
| B5 | 1.33 | 6.6 |

Target: T1, HLA-A*02:01/MAGE-A4^230-239 displayed …
Experiment: cell-based or functional assay
Remark: another data set of the same source

| Binder | IFNγ EC50 vs. target positive cells (pM) |
| --- | --- |
| B1 | 7.7 |
| B2 | 4.4 |
| B3 | 4.5 |
| B4 | 5.8 |
| B5 | 7.6 |
| B6 | 9 |
| B7 | 6.4 |
| B8 | 9.5 |
| B9 | 8.5 |
| B10 | 12.3 |

Target: T2, HLA-A*02:01/MAGE-A4^230-239, soluble recombinant biotinylated pHLA (human, UniProt P04439 25-299 at identity 0.94); P61769 21-119, biotinylated)
T2 construct: Empty biotinylated HLA-A2 monomers (Tetramer Shop) loaded with synthetic peptide; also called MAGE-A4 pMHC; MAGE-A4-pHLA
Experiment: ELISA, soluble biotinylated pHLA on neutravidin, scDb, protL-HRP
Procedure: ELISA plates were coated with 5 μg/mL NeutrAvidin in PBS and incubated 16 h/4° C. (step (a)) and blocked with 5% skim milk powder in PBST for 1 h/room temperature (RT) (step (c)). […] Bound phage particles were detected with an anti-Fd antibody (anti-M13-HRP (Amersham Biosciences)), whereas bound IgG1 and scDb was detected with HRP conjugated protein L (Genscript) (step (i)). […] Plates were developed with TMB solution and read at 450 nm using a microplate reader (step (k)). Between each layer, the plates were washed 3× with PBST (steps (b), (d), (f), (h), and (j)).

| Binder | EC50 [pM] |
| --- | --- |
| B1 | 880 |
| B2 | 320 |
| B3 | 280 |
| B4 | 480 |
| B5 | 620 |
| B6 | 1030 |
| B7 | 120 |
| B8 | 510 |
| B9 | 810 |
| B10 | 1850 |

Target: T2, HLA-A*02:01/MAGE-A4^230-239, soluble …
Experiment: SPR, biotinylated pHLA on neutravidin chip, Fab injected (Assay 6-1); Fab format

| Binder | Kd [pM] |
| --- | --- |
| B11 | 86300 |
| B12 | 325000 |
| B13 | 148000 |
| B14 | 15800 |
